Reference: the domain aggregation screens of Martell et al. (2025)

Assay: soluble fraction after stress (log2 fold change); higher = more stays soluble; pooled small domains, quantitative proteomics
Conditions: stress: 75 degC
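Note: 20 min heating vs room temperature control held 20 min.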

Sequence | soluble fraction (log2)
HMREEFIGVLDGKVAIFHGRPERKGPLKEVTAIEVDKLPRQEQADLEKGLVIRTDKEKLQLMEGLAALLD | 0.683
HMREELIALYRAIARLSEDEQELLNLFYFARRPLSEIAQLTGMTPGAAKTRLYRARRHLRREMEEDGYG | -1.07
HMREGLRHLRVRMPGGAGETLAMLYREGEVLSQSSDGAFIEVEIRVAQSVAGRLLQMPGVQLTEEVG | -0.941
HMREGNELLGKEGVTVSELRPAGIALIDGRRTDVVTDGEFVAVDQAVEVVEVSGNRVVVRRS | 0.305
HMREIDIWVAEDADSQRIDKYLSMVVEDLSRSRIASLIEGGSILVNGEVIRAKYKVKPADHITAAFEDEM | -1.27
HMREIKSNEILLEVENLKNSEFFNDINFNIKKGEIVGFSGLIGAGRTELALTLFGYYKAESGKVIQ | 0.101
HMREIRIIAEEGHGRLDAFLAGREELGLSRSRIKGLIEEGQVTLNGAVPKAKQPVSPGDEIVVSVPD | 0.192
HMREKMKGKILDYNFQESRGIISADDGNRYSFENSQWKGTQSPKVNQIVDFEIDGQNAKDIYLDK | 0.0796
HMRESLSEAERHPRYLEGEDVVRMFLLMGDLSRVEAEVIALQWNAQEADRVGLPQDAKVFRTRAR | -0.523
HMREVDKRYYKINIAGTDRIFTNVYRVGDRYSAYEADKNGKPGKFLYSLSQAEIDRAVISGSFDFK | -0.225
HMREVSPEDLALMRRIDAWHLEHPFAGARLLRDLLRPEGFQAGRRHIGTLMARMGIEALYRK | -0.383
HMREYVGLSPFNKEKTPSFYVNDEKGQFFDFSSGKNGDLITFLQETERLTFMEAVERLAAEAGLPMPA | -0.742
HMRFANGHLIWDTIIELRNAERRINRRALADLTGLKPGVVDDHVERWIEKDQLRRAGNGELEVV | -1.36
HMRFMRVSQSKSKNSTSLYIIESVYTKDNKHTTRIVKKLGTVEELSKEHEDPLAWAKEVAKQMTEEAEQN | -0.569
HMRFNIGNVIEHYKLNTEDLAKVLFPTVKYPKQAFDRVLKGEANLDVIQLERLANHIGVLVTDLF | -1.18
HMRFQGKISDWNDEKGYGFVEPNGGGTRAFVHIKSFTDLPRRPINGDIIIYETTTDEKNRVQANNISFTR | -0.194
HMRFSYLNIETRKDISSLINKSEITHSSYNNNEYLYKIKSKKTDDFKDLISLIDEKDLISYSIDS | -1.14
HMRFTVSDKMDMLLKSLSAGQSMPFKSLFASASTKSEVIVTFLALLELMKLNQFVVWQDQILGEIEIERR | -0.751
HMRGDQLREHLLWTAKDVFLELGFERASMDAVAARAETSKRSLYAHFESKEKLFLAVIDLVRG | -3.54
HMRGESFSTLVSILQEMSARKAAQVLNGLSEGLAVEVLRALPSDVAGDILGRMDAAKAAALMEQLST | -0.46
HMRGGLATLTPRERQVLALMAEGRSNAGIAAELVVSGGAVEKHVASIFTKLGLPPDESDNRRVLAVLRHLG | -1.74
HMRGHASVEIKRIVYKYKLTDQELAKITGMKASDFPIYHDHLQLILPKRYWARVLDALQNYEKEHES | -4.04
HMRGINDLSLVDPQGRIRKDGEQYVVAFGRHKGKEISQIISQDPSYLNWLLSPKGIEDDATRELIRTQYS | -0.206
HMRGPTIELLIQKSALYEELDDSENALKEILKAFDRDSLNSDVLNRLVNLLLNDKQIDRAENYNQLLIEK | -0.17
HMRGPVRLDLPVSGLSRSSGPALAKILQAVPGVHKAHVNVRSGKATLEYDPARAKVTDFVEVIRSAGFGT | -0.272
HMRGQGRILAMLKIQPEIATKDLAYLLGIRQQSLNELLKKLEKNSYVERRPSEKDRRVMVVHLTEKGKE | -0.782
HMRGQLADLWLPREQARRAAEIVAARPVPLGSVKTWIARGKLAPRKTGTGPALYRVGALVSLLAKS | -2.14
HMRGVNEISYTTLISEVSGGNVRDVVISGDEITGTFNDGSRFHSFSPDDPQFIERLNDQGVIINVKPL | 0.168
